This passage reports EC50 results from patent US20210292414A1 (H LUNDBECK A S, published 2021).

What all share (assay): BLI (Octet384RED)
One assay concerns the target T1, hRim.
T1 chimeric human/tetraodon Sortilin extracellular region, BAP tag: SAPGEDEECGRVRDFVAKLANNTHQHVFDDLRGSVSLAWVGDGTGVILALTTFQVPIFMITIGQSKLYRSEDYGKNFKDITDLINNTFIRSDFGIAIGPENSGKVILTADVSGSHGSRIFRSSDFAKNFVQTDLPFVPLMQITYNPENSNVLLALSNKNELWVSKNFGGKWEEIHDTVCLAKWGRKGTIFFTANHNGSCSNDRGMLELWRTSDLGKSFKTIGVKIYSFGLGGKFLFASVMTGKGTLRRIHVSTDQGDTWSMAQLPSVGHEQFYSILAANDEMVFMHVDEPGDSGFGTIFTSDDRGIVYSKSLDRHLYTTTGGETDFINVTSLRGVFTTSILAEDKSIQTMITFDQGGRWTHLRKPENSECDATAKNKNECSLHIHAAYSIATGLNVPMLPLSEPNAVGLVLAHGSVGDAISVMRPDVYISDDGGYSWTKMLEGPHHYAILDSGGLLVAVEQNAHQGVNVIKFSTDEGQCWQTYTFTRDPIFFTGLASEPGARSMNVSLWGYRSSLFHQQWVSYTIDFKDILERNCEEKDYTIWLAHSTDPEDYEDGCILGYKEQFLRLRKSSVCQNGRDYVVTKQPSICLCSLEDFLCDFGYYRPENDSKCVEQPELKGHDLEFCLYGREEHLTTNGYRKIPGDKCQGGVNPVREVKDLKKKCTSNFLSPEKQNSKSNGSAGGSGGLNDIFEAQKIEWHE

In another assay the target is T2, hBack.
T2 chimeric human/tetraodon Sortilin extracellular region, BAP tag: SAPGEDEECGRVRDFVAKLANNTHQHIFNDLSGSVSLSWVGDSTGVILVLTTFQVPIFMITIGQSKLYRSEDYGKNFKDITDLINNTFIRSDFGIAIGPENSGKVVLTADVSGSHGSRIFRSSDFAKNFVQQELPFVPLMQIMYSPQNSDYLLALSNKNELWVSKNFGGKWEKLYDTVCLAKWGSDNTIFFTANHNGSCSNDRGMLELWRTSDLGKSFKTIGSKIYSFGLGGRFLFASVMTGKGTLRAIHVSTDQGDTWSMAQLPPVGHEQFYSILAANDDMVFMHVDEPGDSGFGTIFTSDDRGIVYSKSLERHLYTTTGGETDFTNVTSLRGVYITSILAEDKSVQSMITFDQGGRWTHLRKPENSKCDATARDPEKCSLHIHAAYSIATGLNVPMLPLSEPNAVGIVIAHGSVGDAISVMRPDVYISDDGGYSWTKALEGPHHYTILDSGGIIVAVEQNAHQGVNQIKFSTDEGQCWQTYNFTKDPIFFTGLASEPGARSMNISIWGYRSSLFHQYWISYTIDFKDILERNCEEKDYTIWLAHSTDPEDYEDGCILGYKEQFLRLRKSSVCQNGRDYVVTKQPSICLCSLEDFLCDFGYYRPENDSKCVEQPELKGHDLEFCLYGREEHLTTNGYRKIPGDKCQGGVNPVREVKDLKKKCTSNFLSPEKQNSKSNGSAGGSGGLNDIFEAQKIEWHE

The target in assay [1] is T3, Sortilin SORTECDBAP_hB06-10 (human/tetraodon chimera).
T3 construct: Shuffle construct: chimeric human/tetraodon Sortilin ECD with BAP tag
T3 chain: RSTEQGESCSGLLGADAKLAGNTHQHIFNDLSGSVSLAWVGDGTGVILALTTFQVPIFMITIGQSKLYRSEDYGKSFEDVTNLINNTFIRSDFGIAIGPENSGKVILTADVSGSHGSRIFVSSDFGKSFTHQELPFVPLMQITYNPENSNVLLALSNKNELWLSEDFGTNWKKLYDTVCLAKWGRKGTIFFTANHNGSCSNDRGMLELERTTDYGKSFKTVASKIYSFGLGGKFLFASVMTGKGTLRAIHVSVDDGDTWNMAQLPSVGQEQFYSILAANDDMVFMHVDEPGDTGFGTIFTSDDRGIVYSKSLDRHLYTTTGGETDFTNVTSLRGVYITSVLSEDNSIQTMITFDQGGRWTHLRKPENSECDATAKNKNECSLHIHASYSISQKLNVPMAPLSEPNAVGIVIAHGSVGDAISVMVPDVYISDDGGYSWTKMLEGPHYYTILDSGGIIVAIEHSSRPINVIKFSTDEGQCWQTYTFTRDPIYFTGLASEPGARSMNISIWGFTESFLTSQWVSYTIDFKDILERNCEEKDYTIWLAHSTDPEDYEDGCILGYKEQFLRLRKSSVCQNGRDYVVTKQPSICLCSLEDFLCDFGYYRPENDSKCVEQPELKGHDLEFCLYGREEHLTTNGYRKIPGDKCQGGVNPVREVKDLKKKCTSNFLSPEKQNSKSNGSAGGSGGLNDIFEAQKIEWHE

For assay [2], the target named is T4, Sortilin SORTECDBAP_hB12390 (human/tetraodon chimera).
T4 construct: Shuffle construct: chimeric human/tetraodon Sortilin ECD with BAP tag
T4 chain: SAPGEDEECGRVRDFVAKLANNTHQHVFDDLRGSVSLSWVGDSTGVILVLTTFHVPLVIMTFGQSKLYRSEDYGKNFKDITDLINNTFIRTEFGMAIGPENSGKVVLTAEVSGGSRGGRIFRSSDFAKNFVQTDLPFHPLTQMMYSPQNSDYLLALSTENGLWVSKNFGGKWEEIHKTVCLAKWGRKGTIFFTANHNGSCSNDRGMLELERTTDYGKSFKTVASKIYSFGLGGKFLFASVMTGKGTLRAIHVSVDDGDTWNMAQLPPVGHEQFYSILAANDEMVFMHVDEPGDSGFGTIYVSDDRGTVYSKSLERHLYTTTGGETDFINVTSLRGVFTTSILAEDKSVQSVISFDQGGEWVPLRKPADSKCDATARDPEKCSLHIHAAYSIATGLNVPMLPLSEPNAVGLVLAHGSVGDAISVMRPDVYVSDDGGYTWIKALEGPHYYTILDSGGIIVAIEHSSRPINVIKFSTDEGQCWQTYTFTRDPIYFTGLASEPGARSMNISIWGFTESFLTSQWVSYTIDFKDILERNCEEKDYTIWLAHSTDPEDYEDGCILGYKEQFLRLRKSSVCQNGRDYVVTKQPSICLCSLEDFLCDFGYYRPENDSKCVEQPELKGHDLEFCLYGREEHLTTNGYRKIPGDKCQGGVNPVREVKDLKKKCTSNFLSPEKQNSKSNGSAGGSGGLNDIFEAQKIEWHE

B1: IgG1-6003-408 (antibody, V domains shown)
VH: EVQLVESGGGLVKPGGSLRLSCAASGFTFSSYSMNWVRQAPGKGLEWVSSISSSSSYIYYADSVKGRFTISRDNAKNSLYLQMNSLRAEDTAVYYCARRRIAAAGTGYGAFDIWGQGTMVTVSS
VL: ARQLTQSPSSLSASVGDRVTITCRASQGITSALAWYQQKPGKVPKLLIYDASSLESGVPSRFSGSGSGTDFTLTISSLQPEDFATYYCQQFNGYPMFSFGQGTKLEII
notes: also called Antibody 6003-408
As usually defined, the EC50 is the concentration giving half of the maximal effect. A low value points to higher potency in that assay. Consider B1, for which the EC50 with hRim worked out at 2.78 ng/mL; with hBack, 2.37 ng/mL; in assay [1], 1.68 ng/mL; in assay [2], 2.21 ng/mL.

B2: Antibody 6003-1277 (antibody, V domains shown)
VH: QVQLVQSGAEVKKPGASVKVSCKTSGYTFTHYGISWVRQAPGQGLEWMGWINTYNGNTKYAQKLQGRVTMTTDTSTSTAYMELRSLRSDDTAVYYCASLGRNFDYWGQGTLVTVSS
VL: not shown
Regarding B2, the EC50 came to 4.34 ng/mL with hRim, 4.07 ng/mL with hBack, 2.62 ng/mL in assay [1] and 3.63 ng/mL in assay [2].

B3: Antibody 6003-030 (antibody, human IgG1, V domains shown)
VH: EVQVLESGGGLVQPGGSLRLSCAASGFTFSSYAMSWVRQAPGKGLEWVSTISGRGGNTYYADSVKGRFTISRDNSKNTLYLQMDSLRAEDTAVYYCAIIPSLYWYFDLWGRGTLVTVSS
VL: EIVLTQSPATLSLSPGERATLSCRASQSVSSYLAWYQQKPGQAPRLLIYDASNRATGIPARFSGSGSGTDFTLTISSLEPEDFAVYYCQQRSNWPLTFGGGTKVEIK
notes: Human antibody (HuMab); also called antibody 30; mAb30
With B3, the EC50 in the assay with hRim was determined as 0.86 ng/mL; with hBack it was 0.85 ng/mL; in assay [1], 0.74 ng/mL; in assay [2] it was 0.82 ng/mL.

B4: Antibody 6003-1286 (antibody, human IgG1, V domains shown)
VH: EVQLLESGGGLVQPGGSLRLSCAASGFTFSSYAMSWVRQAPGKGLEWVSTISGRGGNTYYADSVKGRFTISRDNSKNTLYLQMNSLRAEDAAVYYCANIYSHYWYFDLWGRGTLVTVSS
VL: EIVLTQSPATLSLSPGERATLSCRASQSVNSYLAWYQQKPGQAPRLLIYDASNRATGIPARFSGSGSGTDFTLTISSLEPEDFAVYYCQQRSNWPLTFGGGTKVEIK
As for B4, the EC50 with hRim came out at 1.05 ng/mL; with hBack, 1.02 ng/mL; in assay [1], 0.87 ng/mL; in assay [2], 0.86 ng/mL.

B5: Antibody 6003-056 (antibody, human IgG1, V domains shown)
VH: EVQVLESGGGLVQPGGSLRLSCVASGFTFSSYAMHWVRQAPGKGLEWVSAISGRGGSTYYADSVKGRFTISRDNSKNTLYLQMNSLRAEDTAVYYCAIIPSLYWYFDLWGRGTLVTVSS
VL: EIVLTQSPATLSLSPGERATLSCRASQSVSSFLAWYQQKPGQAPRLLIYDASNRATGIPARFSGSGSGTDFTLTISSLEPEDFAVYYCQQRSNWPLTFGGGTKVEIK
As to B5, the EC50 with hRim was found to be 1.24 ng/mL; in the assay with hBack it was 1.14 ng/mL; in assay [1], 0.97 ng/mL; in assay [2], 1.42 ng/mL.

B6: Antibody 6003-028 (antibody, human IgG1, V domains shown)
VH: EVQLLESGGGLVQPGGSLRLSCAASGFTFSSYAMSWVRQAPGKGLEWVSTISGRGGSTYYADSVKGRFTISRDNSKNTLYLQMNSLRAEDTAVYYCANLYSNYWYFDLWGRGTLVTVSS
VL: EIVLTQSPATLSLSPGERATLSCRASQSVSSFLAWYQQKPGQAPRLLIYDASNRATGIPARFSGSGSGTDFTLTISSLEPEDFAVYYCQQRSNWPLTFGGGTKVEIK
As to B6, the EC50 was 2.04 ng/mL with hRim, 1.87 ng/mL with hBack, 1.56 ng/mL in assay [1] and 1.86 ng/mL in assay [2].

B7: Antibody 6003-083 (antibody, human IgG1, V domains shown)
VH: EVQLLESGGGLVQPGGSLRLSCAASGFTFSSYAMSWVRQAPGKGLEWVSTISGRGGSTYYADSVKGRFTISRDNSKNTLYLQMNSLRAEDTAVYYCAIVATMYWYFDLWGRGTLVTVSS
VL: EIVLTQSPATLSLSPGERATLSCRASQSVSSYLAWYQQKPGQAPRLLIYDASNRATGIPARFSGSGSGTDFTLTISSLEPEDFAVYYCQQRSNWPITFGQGTRLEIK
For B7, the EC50 with hRim was 0.99 ng/mL; with hBack it was 1.34 ng/mL; in assay [1], 0.76 ng/mL; in assay [2], 0.86 ng/mL.

B8: Antibody 6003-381 (antibody, human IgG1, V domains shown)
VH: QVQLVESGGGVVQPGRSLRLSCAASGFTFSNYVMHWVRQAPGKGLEWVAAISYNGNNKYYADSVKGRFTISRDNSKNTLYLQMNSLRAEDTAVSYCAKGLNDAFDIWGQGTMVTVSS
VL: not shown
In the case of B8, the EC50 with hRim is 2.28 ng/mL; with hBack, 1.6 ng/mL; in assay [1], 1.34 ng/mL; in assay [2] it was 1.93 ng/mL.
